This note sets out measurements from patent US20140322196A1 (priority 2011, published 2014).

The subject of this assay is A/Parma/24/09 (Brisbane-like) (oseltamivir-resistant) H1N1. The class given is cell-based, Influenza A virus. As to conditions: A/Parma/24/09 H1N1.

B1: bLf: Lactoferrin from bovine milk, purchased from Morinaga Milk Industries, deprived of endotoxin (protein, UniProt P24627 20-708, looked up)
Lactotransferrin: APRKNVRWCTISQPEWFKCRRWQWRMKKLGAPSITCVRRAFALECIRAIAEKKADAVTLDGGMVFEAGRDPYKLRPVAAEIYGTKESPQTHYYAVAVVKKGSNFQLDQLQGRKSCHTGLGRSAGWIIPMGILRPYLSWTESLEPLQGAVAKFFSASCVPCIDRQAYPNLCQLCKGEGENQCACSSREPYFGYSGAFKCLQDGAGDVAFVKETTVFENLPEKADRDQYELLCLNNSRAPVDAFKECHLAQVPSHAVVARSVDGKEDLIWKLLSKAQEKFGKNKSRSFQLFGSPPGQRDLLFKDSALGFLRIPSKVDSALYLGSRYLTTLKNLRETAEEVKARYTRVVWCAVGPEEQKKCQQWSQQSGQNVTCATASTTDDCIVLVLKGEADALNLDGGYIYTAGKCGLVPVLAENRKSSKHSSLDCVLRPTEGYLAVAVVKKANEGLTWNSLKDKKSCHTAVDRTAGWNIPMGLIVNQTGSCAFDEFFSQSCAPGADPKSRLCALCAGDDQGLDKCVPNSKEKYYGYTGAFRCLAEDVGDVAFVKNDTVWENTNGESTADWAKNLNREDFRLLCLDGTRKPVTEAQSCHLAVAPNHAVVSRSDRAAHVKQVLLHQQALFGKNGKNCPDKFCLFKSETKNLLFNDNTECLAKLGGRPTYEEYLGTEYVTAIANLKKCSTSPLLEACAFLTR
Regarding B1, the HI titre came to 6 nM.
